# Target: Human IgE antibody (human)
# Assay: cell-based or functional assay
Binder,EC50 CE-SDS IgE [nM],EC50 MSD IgE [nM]
FP132 (Fc fusion) DKTHTCPPCPAPEAAGAPSVFLFPPKPKDTLMISRTPEVTCVVVDVSHEDPEVKFNWYVDGVEVHNAKTKPREEQQNSTYRVVSVLTVLHQDWLNGKEYKCKVSNKALKAPIEKTISKAKGQPREPQVYTLPPSRDELTKNQVSLTCLVKGFYPSDIAVEWESNGQPENNYKTTPPVLDSDGSFFLYSKLTVDKSRWQQGNVFSCSVMHEALHNHYTQKSLSLSPGGGGGSGGGGSTALGRRKAEDRIKETLWADGVKIDEKDFEHIKSSHEDYFAVEYGKGSGYYDVNKKMDSEDTALCVGAVVTNMFHWWVDQNRENIEKFKKQDPENNGVMKFEGVKEATVDELNEFYRDNRDNYADQSRFFDLIKKHFGNKALNPEELFELYFNGFYYGSSHRYIEDNEPAQNNLFSKVLENNKLLNPERSYGIDGFSNNVINALKSHKVLGLVYTTPLRYRHIISMWGADIDQDGKVKAIYVTDSDDREITFNDNSKRRIGMIRYDVLVDDNGNIRFTGKGATHKEEGAIYAGLYSLSRGDEVWEDYFKKYPEVQENL,1.27,–
FP2 (Fc fusion) DKTHTCPPCPAPEAAGAPSVFLFPPKPKDTLMISRTPEVTCVVVDVSHEDPEVKFNWYVDGVEVHNAKTKPREEQQNSTYRVVSVLTVLHQDWLNGKEYKCKVSNKALKAPIEKTISKAKGQPREPQVYTLPPSRDELTKNQVSLTCLVKGFYPSDIAVEWESNGQPENNYKTTPPVLDSDGSFFLYSKLTVDKSRWQQGNVFSCSVMHEALHNHYTQKSLSLSPGGGGSGGGGSGGGGSTALGRRKAEDRIKETLWADGVKIDEKDFEHIKSSHEDYFAVEYGKGSGYYDVNKKMDSEDTALCVGAVVTNMFHWWVDQNRENIEKFKKQDPENNGVMKFNGVKEATVDELNHFYKEYQSNKYADQSRFFDLIKKHFGNKALNPEELFELYFNGFYYNSSHRYIEDNKPAQNNLFSKVLENNKLLNPERSYGIDGFSNNVINALKSHKVLGLVHTTPLRYRHIISMWGADIDQDGKVKAIYVTDSDDREITFNDNSKRRIGMIRYDVLVDDNGNIRFTGKGATHKEEGAIYAGLYSLSRGDEVWEDYFKKYPEVQENL,212,140
FP6 (Fc fusion) DKTHTCPPCPAPEAAGAPSVFLFPPKPKDTLMISRTPEVTCVVVDVSHEDPEVKFNWYVDGVEVHNAKTKPREEQQNSTYRVVSVLTVLHQDWLNGKEYKCKVSNKALKAPIEKTISKAKGQPREPQVYTLPPSRDELTKNQVSLTCLVKGFYPSDIAVEWESNGQPENNYKTTPPVLDSDGSFFLYSKLTVDKSRWQQGNVFSCSVMHEALHNHYTQKSLSLSPGGGGSGGGGSGGGGSTALGRRKAEDRIKETLWADGVKIDEKDFEHIKSSHEDYFAVEYGKGSGYYDVNKKMDSEDTALCVGAVVTNMFHWWVDQNRENIEKFKKQDPENNGVMKFEGVKEATVDELNHFYKEYQSNKYADQSRFFDLIKKHFGNKALNPEELFELYFNGFYYQSSHRYIEDNEPAQNNLFSKVLENNKLLNPERSYGIDGFSNNVINALKSHKVLGLVHTTPLTYRHIISMWGADIDQDGKVKAIYVTDSDDREITFNDNSKRRIGMIRYDVLVDDNGNIRFTGKGATHKEEGAIYAGLYSLSRGDEVWEDYFKKYPEVQENL,–,99.4
FP3 (Fc fusion) DKTHTCPPCPAPEAAGAPSVFLFPPKPKDTLMISRTPEVTCVVVDVSHEDPEVKFNWYVDGVEVHNAKTKPREEQQNSTYRVVSVLTVLHQDWLNGKEYKCKVSNKALKAPIEKTISKAKGQPREPQVYTLPPSRDELTKNQVSLTCLVKGFYPSDIAVEWESNGQPENNYKTTPPVLDSDGSFFLYSKLTVDKSRWQQGNVFSCSVMHEALHNHYTQKSLSLSPGGGGSGGGGSGGGGSTALGRRKAEDRIKETLWADGVKIDEKDFEHIKSSHEDYFAVEYGKGSGYYDVNKKMDSEDTALCVGAVVTNMFHWWVDQNRENIEKFKKQDPENNGVMKFNGVKEATVDELNHFYKEYQSNKYADQSRFFDLIKKHFGNKALNPEELFELYFNGFYYQSSHRYIEDNKPAQNNLFSKVLENNKLLNPERSYGIDGFSNNVINALKSHKVLGLVHTTPLRYRHIISMWGADIDQDGKVKAIYVTDSDDREITFNDNSKRRIGMIRYDVLVDDNGNIRFTGKGATHKEEGAIYAGLYSLSRGDEVWEDYFKKYPEVQENL,71.5,114
FP11 (Fc fusion) DKTHTCPPCPAPEAAGAPSVFLFPPKPKDTLMISRTPEVTCVVVDVSHEDPEVKFNWYVDGVEVHNAKTKPREEQQNSTYRVVSVLTVLHQDWLNGKEYKCKVSNKALKAPIEKTISKAKGQPREPQVYTLPPSRDELTKNQVSLTCLVKGFYPSDIAVEWESNGQPENNYKTTPPVLDSDGSFFLYSKLTVDKSRWQQGNVFSCSVMHEALHNHYTQKSLSLSPGGGGSGGGGSGGGGSTALGRRKAEDRIKETLWADGVKIDEKDFEHIKSSHEDYFAVEYGKGSGYYDVNKKMDSEDTALCVGAVVTNMFHWWVDQNRENIEKFKKQDPENNGVMKFEGVKEATVDELNHFYRDNRDNYADQSRFFDLIKKHFGNKALNPEELFELYFNGFYYGSSHRYIEDNEPAQNNLFSKVLENNKLLNPERSYGIDGFSNNVINALKSHKVLGLVHTTPLRYRHIISMWGADIDQDGKVKAIYVTDSDDREITFNDNSKRRIGMIRYDVLVDDNGNIRFTGKGATHKEEGAIYAGLYSLSRGDEVWEDYFKKYPEVQENL,68.5,–
FP12 (Fc fusion) DKTHTCPPCPAPEAAGAPSVFLFPPKPKDTLMISRTPEVTCVVVDVSHEDPEVKFNWYVDGVEVHNAKTKPREEQQNSTYRVVSVLTVLHQDWLNGKEYKCKVSNKALKAPIEKTISKAKGQPREPQVYTLPPSRDELTKNQVSLTCLVKGFYPSDIAVEWESNGQPENNYKTTPPVLDSDGSFFLYSKLTVDKSRWQQGNVFSCSVMHEALHNHYTQKSLSLSPGGGGSGGGGSGGGGSTALGRRKAEDRIKETLWADGVKIDEKDFEHIKSSHEDYFAVEYGKGSGYYDVNKKMDSEDTALCVGAVVTNMFHWWVDQNRENIEKFKKQDPENNGVMKFEGVKEATVDELNHFYRDNRDNYADQSRFFDLIKKHFGNKALNPEELFELYFNGFYYGSSHRYIEDNEPAQNNLFSKVLENNKLLNPERSYGIDGFSNNVINALKSHKVLGLVYTTPLRYRHIISMWGADIDQDGKVKAIYVTDSDDREITFNDNSKRRIGMIRYDVLVDDNGNIRFTGKGATHKEEGAIYAGLYSLSRGDEVWEDYFKKYPEVQENL,43.3,0.753
FP121 (Fc fusion) DKTHTCPPCPAPEAAGAPSVFLFPPKPKDTLMISRTPEVTCVVVDVSHEDPEVKFNWYVDGVEVHNAKTKPREEQQNSTYRVVSVLTVLHQDWLNGKEYKCKVSNKALKAPIEKTISKAKGQPREPQVYTLPPSRDELTKNQVSLTCLVKGFYPSDIAVEWESNGQPENNYKTTPPVLDSDGSFFLYSKLTVDKSRWQQGNVFSCSVMHEALHNHYTQKSLSLSPGGGGSGGGGSGGGGSTALGRRKAEDRIKETLWADGVKIDEKDFEHIKSSHEDYFAVEYGKGSGYYDVNKKMDSEDTALCVGAVVTNMFHWWVDQNRENIEKFKKQDPENNGVMKFEGVKEATVDELNEFYRDNRDNYADQSRFFDLIKKHFGNKALNPEELFELYFNGFYYGSSHRYIEDNEPAQNNLFSKVLENNKLLNPERSYGIDGFSNNVINALKSHKVLGLVYTTPLRYRHIISMWGADIDQDGKVKAIYVTDSDDREITFNDNSKRRIGMIRYDVLVDDNGNIRFTGKGATHKEEGAIYAGLYSLSRGDEVWEDYFKKYPEVQENL,1.22,1.25
FP15 (Fc fusion) DKTHTCPPCPAPEAAGAPSVFLFPPKPKDTLMISRTPEVTCVVVDVSHEDPEVKFNWYVDGVEVHNAKTKPREEQQNSTYRVVSVLTVLHQDWLNGKEYKCKVSNKALKAPIEKTISKAKGQPREPQVYTLPPSRDELTKNQVSLTCLVKGFYPSDIAVEWESNGQPENNYKTTPPVLDSDGSFFLYSKLTVDKSRWQQGNVFSCSVMHEALHNHYTQKSLSLSPGGGGSGGGGSGGGGSTALGRRKAEDRIKETLWADGVKIDEKDFEHIKSSHEDYFAVEYGKGSGYYDVNKKMDSEDSALCVGAVVTNMFHWWVDQNRENIEKFKKQDPENNGVMKFEGVKEATVDELNHFYRDNRDNYADQSRFFDLIKKHFGNKALNPEELFELYFNGFYYGSSHRYIEDNEPAQNNLFSKVLENNKLLNPERSYGIDGFSNNVINALKSHKVLGLVHTTPLTYRHIISMWGADIDQDGKVKAIYVTDSDDREITFNDNSKRRIGMIRYDVLVDDNGNIRFTGKGATHKEEGAIYAGLYSLSRGDEVWEDYFKKYPEVQENL,54.7,–
FP14 (Fc fusion) DKTHTCPPCPAPEAAGAPSVFLFPPKPKDTLMISRTPEVTCVVVDVSHEDPEVKFNWYVDGVEVHNAKTKPREEQQNSTYRVVSVLTVLHQDWLNGKEYKCKVSNKALKAPIEKTISKAKGQPREPQVYTLPPSRDELTKNQVSLTCLVKGFYPSDIAVEWESNGQPENNYKTTPPVLDSDGSFFLYSKLTVDKSRWQQGNVFSCSVMHEALHNHYTQKSLSLSPGGGGSGGGGSGGGGSTALGRRKAEDRIKETLWADGVKIDEKDFEHIKSSHEDYFAVEYGKGSGYYDVNKKMDSEDTALCVGAVVTNMFHWWVDQNRENIEKFKKQDPENNGVMKFEGVKEATVDELNHFYRDNRDNYADQSRFFDLIKKHFGNKALNPEELFELYFNGFYYGSSHRYIEDNEPAQNNLFSKVLENNKLLNPERSYGIDGFSNNVINALKSHKVLGLVYTTPLTYRHIISMWGADIDQDGKVKAIYVTDSDDREITFNDNSKRRIGMIRYDVLVDDNGNIRFTGKGATHKEEGAIYAGLYSLSRGDEVWEDYFKKYPEVQENL,31.9,–
FP17 (Fc fusion) DKTHTCPPCPAPEAAGAPSVFLFPPKPKDTLMISRTPEVTCVVVDVSHEDPEVKFNWYVDGVEVHNAKTKPREEQQNSTYRVVSVLTVLHQDWLNGKEYKCKVSNKALKAPIEKTISKAKGQPREPQVYTLPPSRDELTKNQVSLTCLVKGFYPSDIAVEWESNGQPENNYKTTPPVLDSDGSFFLYSKLTVDKSRWQQGNVFSCSVMHEALHNHYTQKSLSLSPGGGGSGGGGSGGGGSGGGGSGGGGSGGGGSTALGRRKAEDRIKETLWADGVKIDEKDFEHIKSSHEDYFAVEYGKGSGYYDVNKKMDSEDTALCVGAVVTNMFHWWVDQNRENIEKFKKQDPENNGVMKFNGVKEATVDELNHFYKEYQSNKYADQSRFFDLIKKHFGNKALNPEELFELYFNGFYYGSSHRYIEDNKPAQNNLFSKVLENNKLLNPERSYGIDGFSNNVINALKSHKVLGLVHTTPLRYRHIISMWGADIDQDGKVKAIYVTDSDDREITFNDNSKRRIGMIRYDVLVDDNGNIRFTGKGATHKEEGAIYAGLYSLSRGDEVWEDYFKKYPEVQENL,56.3,–
